Results published in patent US8951752B2, “N-demethyase genes and uses thereof” (priority 2011, dated 2015).

Tests used:
Assay type in all cases: biochemical, Pseudomonas putida CBB5
[1] = target: T1, cytochrome c reductase (Ccr) (Pseudomonas putida, UniProt H9N291); assay: NAD(P)H:cytochrome c oxidoreductase activity
T1 construct: 87 μM bovine cytochrome c (type Ill; Sigma), and 1-20 μg CBB5 protein (depending on purity); made in house; host or cells: column fractions of the natural strain Pseudomonas putida CBB5; not recombinant
Experimental: Enzyme Activity Assays. NADH:cytochrome c oxidoreductase (cytochrome c reductase, Ccr) activity was determined as described by Ueda et al. (1972). A typical 1-mL reaction contained 300 μM NADH, 87 μM bovine cytochrome c (type Ill; Sigma), and 1-20 μg CBB5 protein (depending on purity) in 50 mM KPi buffer. The activity was determined by monitoring the increase in absorbance at 550 nm due to reduction of […] cytochrome c at 30° C. An extinction coefficient of 21,000 M^−1 cm^−1 for reduced minus oxidized cytochrome c was used for quantitating the activity. One unit of activity was defined as one μmol of cytochrome c reduced per minute.

[2] = substrate: Cn1cnc2[nH]c(=O)[nH]c(=O)c21; assay: Methylxanthine N-demethylase activity assay with purified Ndm plus partially purified Ccr; settings: other: saturating Ccr, 50 μM Fe2+, 30° C., 50 mM KPi pH 7.5
Experimental: (§1) Methylxanthine N-demethylase activity assay contained, in 1-mL total volume, 0.5 mM methylxanthine, 1 mM NADH, 50 μM Fe(NH4)2(SO4)2, and an appropriate amount of Ndm (0.08-7.5 mg protein, depending on purity of the protein) in 50 mM KPi buffer. Approximately 4 U of partially purified Ccr was added to reaction mixture when assaying Ndm in Phenyl Sepharose and Q Sepharose eluant-fractions (Ccr was not added to the enzyme reaction mixture when assaying Ndm activity in DEAE Sepharose eluant-fractions because Ccr co-eluted with Ndm). The reaction mixture was incubated at 30° C. with 300 rpm shaking on an incubating microplate shaker (VWR). Periodically, a small aliquot was sampled from the reaction mixture and mixed with equal volume of acetonitrile for quantifying concentrations of methylxanthines and N-demethylated products by HPLC. One unit of N-demethylase activity was defined as the consumption of one μmole methylxanthine per minute. When Ndm was coupled with the reductase and ferredoxin components of naphthalene dioxygenase of Pseudomonas sp. strain 9816 (Haigler & Gibson, 1990a; Haigler & Gibson, 1990b), 30 and 100 μg of the respective proteins were used. Spinach ferredoxin reductase and ferredoxin were also substituted for Ccr as described by Subramanian et al. (1979).
(§2) Determination of Kinetic Parameters. Apparent kinetic parameters of Ndm were determined by measuring the initial rate of disappearance (vo) of paraxanthine or 7-methylxanthine in 50 mM KPi buffer (pH 7.5) at 30° C. The paraxanthine and 7-methylxanthine concentrations ([S]) used in these experiments were from 20 to 500 μM. Substrates were incubated with Ndm and Ccr under standard conditions for 15 minutes. At 1, 5, 10, and 15 minutes, samples were removed from the reaction mixtures to quantitate substrate concentrations by HPLC. Plots of substrate concentrations against time were used to determine the initial rates of disappearance of substrates which were linear over 15 minutes. The apparent kinetic parameters were determined from Michaelis-Menten plots of Vo against [S] fitted with the equation
(§3) Determination of Oxygen Requirement. Oxygen consumption by Ndm during N-demethylation of paraxanthine was determined in a closed reaction vessel equipped with a Clarke-type oxygen electrode (Digitial Modell 0, Rank Brothers Ltd., Cambridge, England). […] After 13 minutes, a 100-μL aliquot was withdrawn from the reaction, immediately mixed with equal volume of acetonitrile to stop the enzyme reaction, and analyzed for N-demethylation product by HPLC. Background oxygen consumption, possibly due to NADH oxidase enzyme activity in the partially purified Ccr, was quantitated in control reactions containing all reaction components except paraxanthine. […]

[3] = substrate: Cn1c(=O)[nH]c2ncn(C)c2c1=O; assay: as above; settings: other: saturating Ccr, 50 μM Fe2+, 30° C., 50 mM KPi pH 7.5
Experimental: as §1, §2, §3

[4] = substrate: Cn1cnc2c1c(=O)[nH]c(=O)n2C; assay: Methylxanthine N-demethylase assay and kinetics, NdmB-His6 with His6-NdmD; settings: other: NdmB-His6, 30° C., pH 7.5, ∞ where no activity
Experimental: (§4) Methylxanthine N-demethylase activity assay contained, in 1-ml total volume, 0.5 mM methylxanthine, 1 mM NADH, 50 μM Fe(NH4)2(SO4)2, and an appropriate amount of NdmA-His6 or NdmB-His6 (7.4 μg-2.5 mg protein depending on substrate specificity) in 50 mM KPi buffer (pH 7.5). Approximately 4 U of partially purified reductase, prepared as described previously (Summers et al., 2011) or 59 U of purified His6-NdmD was added to reaction mixture. Catalase from bovine liver (4,000 U) was also added to reactions containing His6-NdmD. The reaction mixture was incubated at 30° C. with 300 rpm shaking on an incubating microplate shaker (VWR, Radnor, Pa.). Periodically, a small aliquot was sampled from the reaction mixture and mixed with equal volume of acetonitrile for quantifying concentrations of methylxanthines and N-demethylated products by HPLC. One unit of N-demethylase activity was defined as the consumption of one […] methylxanthine per minute.
(§5) Apparent kinetic parameters of NdmA-His6 and NdmB-His6 were determined by measuring the initial rate of disappearance (vo) of methylxanthines in 50 mM KPi buffer (pH 7.5) at 30° C. The initial substrate concentrations (ESI) used in these experiments were from 25 to 500 μM. Substrates were incubated with His6-NdmD plus either NdmA-His6 or NdmB-His6 under standard conditions for 15 minutes. At 1, 5, 10, and 15 minutes, samples were removed from the reaction mixtures to quantitate substrate concentrations by HPLC. Plots of substrate concentrations against time were used to determine the initial rates of disappearance of substrates which were linear over 15 minutes. The apparent kinetic parameters were determined from Michaelis-Menten plots of vo against [S] fitted with the equation

[5] = substrate: Cn1c(=O)c2[nH]cnc2n(C)c1=O; assay: as above; settings: other: NdmB-His6, 30° C., pH 7.5, ∞ where no activity
Experimental: as §4, §5

[6] = substrate: Cn1c(=O)c2c(ncn2C)n(C)c1=O; assay: as above; settings: other: NdmB-His6, 30° C., pH 7.5, ∞ where no activity
Experimental: as §4, §5

[7] = substrate: Cn1c(=O)[nH]c(=O)c2[nH]cnc21; assay: as above; settings: other: NdmB-His6, 30° C., pH 7.5, ∞ where no activity
Experimental: as §4, §5

[8] = substrate: Cn1c(=O)[nH]c2ncn(C)c2c1=O; assay: Methylxanthine N-demethylase assay and kinetics, NdmA-His6 with His6-NdmD; settings: other: NdmA-His6, 30° C., pH 7.5, ∞ where no activity
Experimental: as §4, §5

[9] = substrate: Cn1c(=O)[nH]c2nc[nH]c2c1=O; assay: as above; settings: other: NdmA-His6, 30° C., pH 7.5, ∞ where no activity
Experimental: as §4, §5

[10] = substrate: Cn1c(=O)c2[nH]cnc2n(C)c1=O; assay: as above; settings: other: NdmA-His6, 30° C., pH 7.5, ∞ where no activity
Experimental: as §4, §5

[11] = substrate: Cn1c(=O)c2c(ncn2C)n(C)c1=O; assay: as above; settings: other: NdmA-His6, 30° C., pH 7.5, ∞ where no activity
Experimental: as §4, §5

T1 sequence (H9N291 whole entry): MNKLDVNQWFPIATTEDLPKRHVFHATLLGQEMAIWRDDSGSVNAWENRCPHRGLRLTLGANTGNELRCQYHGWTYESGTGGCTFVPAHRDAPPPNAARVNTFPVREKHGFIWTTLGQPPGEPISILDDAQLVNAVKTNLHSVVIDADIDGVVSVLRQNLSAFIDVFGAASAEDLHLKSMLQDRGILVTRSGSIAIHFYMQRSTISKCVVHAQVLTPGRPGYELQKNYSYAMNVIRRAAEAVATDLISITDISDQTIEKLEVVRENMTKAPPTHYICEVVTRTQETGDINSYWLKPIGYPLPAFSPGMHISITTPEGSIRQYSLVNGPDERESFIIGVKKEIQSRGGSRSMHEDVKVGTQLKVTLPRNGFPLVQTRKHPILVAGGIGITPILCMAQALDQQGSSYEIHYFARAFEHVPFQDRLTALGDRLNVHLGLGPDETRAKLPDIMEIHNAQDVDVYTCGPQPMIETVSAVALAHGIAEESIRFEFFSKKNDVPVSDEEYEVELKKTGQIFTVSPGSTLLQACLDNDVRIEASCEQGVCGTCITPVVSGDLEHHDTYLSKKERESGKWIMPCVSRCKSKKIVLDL

NC(=O)C1=CN([C@@H]2O[C@H](COP(=O)(O)OP(=O)(O)OC[C@H]3O[C@@H](n4cnc5c(N)ncnc54)[C@H](OP(=O)(O)O)[C@@H]3O)[C@@H](O)[C@H]2O)C=CC1 [NADPH]
Ccr activity relative to that with NADH [1]: 22%

B1: N-demethylase (Ndm: NdmA and NdmB subunits) (Pseudomonas putida) (protein)
chain 1: MEQAIINDEREYLRHFWHPVCTVTELEKAHPSSLGPLAVKLLNEQLVVAKLGDEYVAMRDRCAHRSAKLSLGTVSGNRLQCPYHGWQYDTHGACQLVPACPNSPIPNKAKVDRFDCEERYGLIWIRLDSSFDCTEIPYFSAANDPRLRIVIQEPYWWDATAERRWENFTDFSHFAFIHPGTLFDPNNAEPPIVPMDRFNGQFRFVYDTPEDMAVPNQAPIGSFSYTCSMPFAINLEVSKYSSSSLHVLFNVSCPVDSHTTKNFLIFAREQSDDSDYLHIAFNDLVFAEDKPVIESQWPKDAPADEVSVVADKVSIQYRKWLRELKEAHKEGSQAFRSALLDPVIESDRSYI
chain 2: MKEQLKPLLEDKTYLRHFWHPVCTLNEFERANASGHGPMGVTLLGEKLVLARLNSKIIAAADRCAHRSAQLSIGRVCSNAGKDYLECPYHGWRYDEAGACQLIPACPDKSISPRAKISSFDCEVKYDIVWVRLDNSFDCTQIPYLSDFDNPDMQVIVADSYIWETVAERRWENFTDFSHFAFVHPGTLYDPFFASHPTVYVNRVDGELQFKLAPPREMKGIPPEAPMGDFTYRCTMPYSVNLEIKLWKDDSRFVLWTTASPVDNKSCRNFMIIVREKDNQPDHMHLAFQKRVLDEDQPVIESQWPLEIQTSEVSVATDKISVQFRKWHKELSLSAVEGREAFRDSVLTNVIEEEQ
notes: lane 3, natural Ndm purified from P. putida CBB5; made in house; host or cells: purified from the natural strain Pseudomonas putida CBB5 (DEAE, Phenyl and Q Sepharose); not recombinant
Km [2]: 63.8 ± 7.5 µM | kcat [2]: 1.58 ± 0.05 s⁻¹ | Km [3]: 50.4 ± 6.8 µM | kcat [3]: 0.27 ± 0.01 s⁻¹

B2: NdmB-His6 (Pseudomonas putida) (protein)
chain: B1 chain 2
notes: made in house; host or cells: E. coli BL21(DE3)
Km [4]: 25.3 ± 5.1 µM | kcat [4]: 0.772 ± 0.0317 s⁻¹ | kcat/Km [4]: 30000 M⁻¹ s⁻¹ | Km [5]: 169.0 µM | Km [6]: 41.7 µM | kcat [6]: 0.00383 s⁻¹ | kcat/Km [6]: 100 M⁻¹ s⁻¹ | Km [7]: 22.4 ± 5.2 µM | kcat [7]: 0.528 ± 0.025 s⁻¹ | kcat/Km [7]: 23300 M⁻¹ s⁻¹

B3: NdmA-His6 (Pseudomonas putida) (protein)
chain: B1 chain 1
notes: as for B2
Km [8]: 52.9 µM | kcat [8]: 2.21 s⁻¹ | kcat/Km [8]: 41700 M⁻¹ s⁻¹ | Km [9]: 266.6 µM | kcat [9]: 0.26 s⁻¹ | kcat/Km [9]: 1000 M⁻¹ s⁻¹ | Km [10]: 9.1 µM | kcat [10]: 1.38 s⁻¹ | kcat/Km [10]: 152000 M⁻¹ s⁻¹ | Km [11]: 37.6 µM | kcat [11]: 3.21 s⁻¹ | kcat/Km [11]: 85000 M⁻¹ s⁻¹
